{"source": "patent US20040018971A1", "about": "(published 2004)", "key": {"[1]": {"molecular_target": "HLA-DR3 (human)", "assay": "competitive inhibition of 125I-labeled probe peptide binding to purified HLA-DR3"}, "[2]": {"molecular_target": "HLA-A*3101 (purified HLA class I molecule) (human)", "assay": "inhibition of 125I probe peptide binding to purified HLA; ratio to standard peptide"}, "[3]": {"molecular_target": "HLA-A*1101 (purified HLA class I molecule) (human)", "assay": "inhibition of 125I probe peptide binding to purified HLA; ratio to standard peptide"}, "[4]": {"molecular_target": "HLA-A*6801 (purified HLA class I molecule) (human)", "assay": "inhibition of 125I probe peptide binding to purified HLA; ratio to standard peptide"}, "[5]": {"molecular_target": "T1, HLA-A*0301 (purified HLA class I molecule) (human)", "T1 construct": "also called A3", "assay": "inhibition of 125I probe peptide binding to purified HLA; ratio to standard peptide"}, "[6]": {"molecular_target": "HLA-A*3301 (purified HLA class I molecule) (human)", "assay": "inhibition of 125I probe peptide binding to purified HLA; ratio to standard peptide; minus sign not explained"}, "[7]": {"molecular_target": "HLA-A*0202 (purified HLA class I molecule) (human)", "assay": "competition with 125I-labelled standard peptide for purified HLA, gel filtration"}, "[8]": {"molecular_target": "HLA-A*0206 (purified HLA class I molecule) (human)", "assay": "competition with 125I-labelled standard peptide for purified HLA, gel filtration"}, "[9]": {"molecular_target": "T2, HLA-A*0201 (purified HLA class I molecule) (human)", "T2 construct": "also called HLA-A2.1", "assay": "competition with 125I-labelled standard peptide for purified HLA, gel filtration"}, "[10]": {"molecular_target": "HLA-A*0203 (purified HLA class I molecule) (human)", "assay": "competition with 125I-labelled standard peptide for purified HLA, gel filtration"}, "[11]": {"molecular_target": "HLA-A*6802 (purified HLA class I molecule) (human)", "assay": "competition with 125I-labelled standard peptide for purified HLA, gel filtration"}, "[12]": {"molecular_target": "T3, HLA-DRB1*0301 (human)", "T3 construct": "purified MHC class II molecule; also called DR3", "assay": "competition with 125I-labelled standard peptide, purified HLA-DR, gel filtration"}, "[13]": {"molecular_target": "T3, HLA-DRB1*0301", "assay": "competition with 125I-labelled standard peptide, purified HLA-DR, gel filtration", "remark": "listed apart in the source"}, "[14]": {"molecular_target": "T4, HLA-A*0301 (human)", "T4 construct": "also called A3", "assay": "competition with 125I-labelled standard peptide for purified HLA, gel filtration"}, "[15]": {"molecular_target": "T5, HLA-A*6801 (human)", "T5 construct": "The construct is not described", "assay": "competition with 125I-labelled standard peptide for purified HLA, gel filtration"}, "[16]": {"molecular_target": "T6, HLA-A*3301 (human)", "T6 construct": "The construct is not described", "assay": "competition with 125I-labelled standard peptide for purified HLA, gel filtration"}, "[17]": {"molecular_target": "T7, HLA-A*3101 (human)", "T7 construct": "The construct is not described", "assay": "competition with 125I-labelled standard peptide for purified HLA, gel filtration"}, "[18]": {"molecular_target": "T8, HLA-A*1101 (human)", "T8 construct": "The construct is not described", "assay": "competition with 125I-labelled standard peptide for purified HLA, gel filtration"}}, "note": "Like-named read-outs stand apart in the source and are kept apart here."}
{"binder": "ARLLDIDETEYHADG", "note": "[Her2/neu.867, listing 1 of 2 here]", "values": [{"measurement": "IC50", "setting": "[1]", "result": "< 1000", "unit": "nM"}]}
{"binder": "GSGAFGTVYK (also called Her2/neu.727 (10-mer))", "note": "[HER2/neu peptide, position 727, 10 amino acids]", "values": [{"measurement": "relative binding ratio", "setting": "[2]", "result": "0.0014 ratio (IC50 standard / IC50 test)"}, {"measurement": "relative binding ratio", "setting": "[3]", "result": "0.13 ratio (IC50 standard / IC50 test)"}, {"measurement": "relative binding ratio", "setting": "[4]", "result": "0.0012 ratio (IC50 standard / IC50 test)"}, {"measurement": "relative binding ratio", "setting": "[5]", "result": "0.066 ratio (IC50 standard / IC50 test)"}, {"measurement": "relative binding ratio", "setting": "[6]", "result": "-0.0013 ratio (IC50 standard / IC50 test)"}]}
{"binder": "QLMPYGCLL (Synthetic peptide; also called Her2/neu.799)", "note": "[HER2/neu peptide, position 799, 9 amino acids]", "values": [{"measurement": "relative binding ratio (IC50 of standard peptide / IC50 of test peptide)", "setting": "[7]", "result": 0.0044, "unit": "ratio"}, {"measurement": "relative binding ratio (IC50 of standard peptide / IC50 of test peptide)", "setting": "[8]", "result": 0.0052, "unit": "ratio"}, {"measurement": "relative binding ratio (IC50 of standard peptide / IC50 of test peptide)", "setting": "[9]", "result": 0.023, "unit": "ratio"}, {"measurement": "relative binding ratio (IC50 of standard peptide / IC50 of test peptide)", "setting": "[10]", "result": 0.088, "unit": "ratio"}, {"measurement": "relative binding ratio (IC50 of standard peptide / IC50 of test peptide)", "setting": "[11]", "result": 0.0031, "unit": "ratio"}]}
{"binder": "ARLLDIDETEYHADG", "note": "[Her2/neu.867, listing 2 of 2 here]", "values": [{"measurement": "IC50", "setting": "[12]", "result": 968, "unit": "nM"}, {"measurement": "IC50", "setting": "[13]", "result": 968, "unit": "nM"}]}
{"binder": "VTAEDGTQR (Synthetic peptide; also called Her2/neu.322 (9-mer))", "note": "[HER2/neu peptide, position 322, 9 amino acids]", "values": [{"measurement": "relative binding ratio", "setting": "[14]", "result": "0.0002 ratio (IC50 of standard peptide / IC50 of test peptide)"}, {"measurement": "relative binding ratio", "setting": "[15]", "result": "0.1 ratio (IC50 of standard peptide / IC50 of test peptide)"}, {"measurement": "relative binding ratio", "setting": "[16]", "result": "0.0037 ratio (IC50 of standard peptide / IC50 of test peptide)"}, {"measurement": "relative binding ratio", "setting": "[17]", "result": "0.0011 ratio (IC50 of standard peptide / IC50 of test peptide)"}, {"measurement": "relative binding ratio", "setting": "[18]", "result": "0.014 ratio (IC50 of standard peptide / IC50 of test peptide)"}]}
